In assay [1] the target is human receptor for advanced glycation endproducts (RAGE) on A375-hRAGE cells (human) (UniProt Q15109).
In assay [2] the target is receptor for advanced glycation endproducts (RAGE) on wild-type A375 cells (human (endogenous in A375)) (UniProt Q15109).
Assay [3] concerns the target extracellular S100A4 secreted by A375-hS100A4 cells (human) (UniProt P26447).
Assay [4] concerns the target extracellular S100A4 secreted by A375 cells (human (endogenous in A375)) (UniProt P26447).

From paper PMC4831350 come the findings set out here.

In assay [1], “extracellular S100A4 secreted by A375 cells (from UniProt P26447 1-101) (natural protein)” yielded a decrease of invasion of A375-hRAGE cells (Boyden chamber with Matrigel) with blocking anti-RAGE antibody (10 μg/ml; R&D), against untreated cells of 15% and a decrease of migration of A375-hRAGE cells (Boyden chamber) with blocking anti-RAGE antibody (10 μg/ml; R&D), against untreated cells of 10%.

As to “recombinant human S100A4 (from UniProt P26447 1-101) (natural protein)”, in assay [2], the increase of invasion of A375 cells (Boyden chamber with Matrigel) with recombinant S100A4 (150 ng/ml), against untreated cells stood at 21% and the increase of migration of A375 cells (Boyden chamber) with recombinant S100A4 (150 ng/ml), against untreated cells stood at 36%. In addition, in assay [1], the increase of invasion of A375-hRAGE cells (Boyden chamber with Matrigel) with recombinant S100A4 (3000 ng/ml), against untreated cells turned out to be 13% and the increase of migration of A375-hRAGE cells (Boyden chamber) with recombinant S100A4 (3000 ng/ml), against untreated cells is 23%.

In assay [3], “soluble RAGE (sRAGE) (domain or fragment)” yielded a decrease of invasion of A375-hS100A4 cells (Boyden chamber with Matrigel) with sRAGE (150 ng/ml), against untreated cells; blocks extracellular S100A4 from membrane RAGE of 15% and a decrease of migration of A375-hS100A4 cells (Boyden chamber) with sRAGE (150 ng/ml), against untreated cells; blocks extracellular S100A4 from membrane RAGE of 24%. In addition, the relative migration of A375 cells (Boyden chamber) with sRAGE (150 ng/ml), untreated cells set as 100%; blocks extracellular S100A4 from membrane RAGE in assay [4] was 63%.
